Data taken from the supplement of paper PMC9170038.

System: MS2 coat protein
Assay: apparent KD of MS2 coat protein; designed switch direction (-1 OFF switch, 1 ON switch): 1; higher = weaker reporter binding
Outline: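 Normalised cluster fluorescence was curve-fitted, and each design's median over clusters is its apparent KD. Before this, SNAP-549-labelled MS2 coat protein was titrated from 0.7 or 1.5 nM, doubling to 3 µM, over RNA switches transcribed on Illumina chips by stalled E. coli RNA polymerase. Titrations had no input, 200 uM small-molecule ligand, or an oligonucleotide input, and steps lasted 0.8–1.5 h (lowest) to 10–20 min (highest).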

[1] = input ligand: microRNA oligo, concentration not stated
[2] = Eterna round: R95, input ligand: FMN 200 uM
[3] = Eterna round: R95, input ligand: microRNA oligo, concentration not stated
[4] = Eterna round: R95, input ligand: none

| Sequence | apparent KD of MS2 coat protein (input ligand: FMN 200 uM) [nM] | apparent KD of MS2 coat protein [1] [nM] | apparent KD of MS2 coat protein (input ligand: none) [nM] | apparent KD of MS2 coat protein [2] [nM] | apparent KD of MS2 coat protein [3] [nM] | apparent KD of MS2 coat protein [4] [nM] |
| --- | --- | --- | --- | --- | --- | --- |
| GGGAGAGGCGCAGGAUAUGGUGAGGAUCACCCACUAGAAGGGUGCACAUGAGAAUCGGACAUGAGGAUCACCCAUGUCCGGCGC (Eterna round: R96, puzzle: Same State NG 1) | 375 | 143 | 445 | – | – | – |
| AUUAGACAUGAGGAUCACCCAUGUAGGCAGUCAUGAGGAUAUGGACAAGGUGCUCAAGGUCCAGAAGGCAUACGCC [Maxeus] (Eterna round: R96, puzzle: Same State 1) | 12.2 | 28.3 | 28 | – | – | – |
| AGCUAUCGAAAACGAUAGCAUAAGCUUGGACAUGAGGAUCACCCAUGUCAUGUACAAGCUUUUUGCUCGUCUUAAAA [JL zipper 29] (Eterna round: R96, puzzle: Sensor for hsa-mir-208a) | 32.3 | 11.9 | 34.5 | – | – | – |
| UUGAAGAAUAAAGGAUAUUGAAUACAUAUGUUUAACAUGAGGAUCACCCAUGUGGGUUGCGGUAUCGAGAAGGUUAAUUACUAG [Mat - Same State NG 2 - JL mod - D11] (Eterna round: R96, puzzle: Same State NG 2) | 151 | 124 | 139 | – | – | – |
| CUGUACCAUGGAGGAUAUGGGCUGAGACCAGGACAACCCUGGUCAACAUGAGGAUCACCCAUGUCCCAGAAGGCCACGGUGCUA [Anraores] (Eterna round: R96, puzzle: Same State NG 2) | 16 | 103 | 132 | – | – | – |
| GGAGCCGGUACUGAGGAUAUUCAUAUUAAAACAUGAGGAUCACCCAUGUAGGCCAGAAGGCCUUGGGAGAAGGCGGACCAGCUCG [Atgexeedri - 1] (puzzle: Same State 2) | – | – | – | 18.8 | 283 | 414 |
| ACAUGAGGAUCACCCAUGUAUGCUCAGGAAACUGUGCAUCAUGAGGAUAUGGAUCCUAAUUGGAUCCAGAAGGCAUGUAUUAUU [Fiskers NG3ss - 28] (Eterna round: R96, puzzle: Same State NG 3) | 699 | 39.1 | 45 | – | – | – |
| GCUACCAAAGAAGCCAACAUGAGGAUCACCCAUGUAUGUUGGCAGGAUAUCGUUUGCAAAGCGAACGAGAAGGGCUAAGGUAGC [Mat - Same State NG 3 - JL Mod - D89] (Eterna round: R96, puzzle: Same State NG 3) | 197 | 116 | 231 | – | – | – |
| GCUGCAAUUAACGCCUACAUGAGGAUCACCCAUGUAUGUAGGCAGGAUAUCGUUUGCUUUGCAAACGAGAAGGGCUGUAGUAGC [JL SSNG3 1.13] (Eterna round: R96, puzzle: Same State NG 3) | 67.2 | 84.5 | 108 | – | – | – |
| UGUUGUUAAUUAGGAUAUGGUCACAUGAGGAUCACCCAUGUAAUGUCGAUGCUAUGUGGAUUUGAUCAGAAGGAAUGGUUAACA [SameState NG2 #98] (Eterna round: R96, puzzle: Same State NG 2) | 49.2 | 62.3 | 90.4 | – | – | – |
| GGAAUAUGAUGUUACAUGAGGAUCACCCAUGUAGUGAUAACUAAGGAUAUCUGAAAGGAAGGAGAGGAGAAGGUAGGAUCAUAA [AK SSNG3-V2-13] (Eterna round: R96, puzzle: Same State NG 3) | 40.1 | 35.3 | 53.2 | – | – | – |
| UAGAAACAUGAGGAUCACCCAUGUGUCAGAGACAUAGGAUAUCGUAACCAGCGCCGGAUACGAGAAGGGUGGUAAA [Enraxe] (puzzle: Same State 1) | – | – | – | 156 | 38.5 | 51.3 |
| UGAAUAGUGAUAGGAUAUACAUGAGGAAUCCUCGUAGAAGGAUCACGACAUGAGGAUCACCCAUGUAGCCGUCGAAAGACGGCA [Mat - Same State NG 1 - JL mod - D61] (Eterna round: R96, puzzle: Same State NG 1) | 924 | 86.1 | 192 | – | – | – |
| AACAAUCUAUCUGAGGAUAUCAUGAAAUAAACAUGAGGAUCACCCAUGUGCAGGAAAACUGCAUAUGAGAAGGCAGAUAUAUUGA [salish99_ss2_r3_055] (puzzle: Same State 2) | – | – | – | 104 | 1160 | 4700 |
| UACAUACGCGGAGGAUAUGGGCGAGGCGCAGAGGUCUGCACCAAAACAUGAGGAUCACCCAUGUCCCAGAAGGCCGCACAAACU [Onageenza] (Eterna round: R96, puzzle: Same State NG 2) | 19.9 | 48.8 | 71.9 | – | – | – |
| GUUUCAUCGAAAGGAUAUGUAUUGAUUGCCAUUGCAGAAGGUUCUCAGACAUGAGGAUCACCCAUGUCAAGCGGAAACGUAGUA [Eternabot solution 37] (Eterna round: R96, puzzle: Same State NG 1) | 20.1 | 15.4 | 47.6 | – | – | – |

| Sequence | apparent KD of MS2 coat protein (input ligand: FMN 200 uM) [nM] | apparent KD of MS2 coat protein [1] [nM] | apparent KD of MS2 coat protein (input ligand: none) [nM] | apparent KD of MS2 coat protein [2] [nM] | apparent KD of MS2 coat protein [3] [nM] | apparent KD of MS2 coat protein [4] [nM] |
| --- | --- | --- | --- | --- | --- | --- |
| GGUGGGUUACUACCCACACAUGAGGAUCACCCAUGUAUUGGGAAGGAUAUGGUGCCUGUGUGGUACCAGAAGGUCCUGAAGGUG [SS-NG3-LRO18] (Eterna round: R96, puzzle: Same State NG 3) | 1360 | 1030 | 2130 | – | – | – |
| AAACACGGCAUAACACCGUGACAUGAGGAUCACCCAUGUACACAGGAUAUCAUGGCAAAACGCCAUGAGAAGGGUGAUCAAGAC [Telate] (Eterna round: R96, puzzle: Same State NG 3) | 464 | 68.1 | 35.1 | – | – | – |
| GGAGAACAUGAGGAUCACCCAUGUAAGCGUUAGCUAGGAUAUGCGGGAAGGAAGAGAGAAGCAGAAGGAGUCGGUA [JR_SS1_Sub032] (puzzle: Same State 1) | – | – | – | 34.9 | 39.4 | 67.8 |
| AACCAACAAAUAAAACAAGCGUGCUCGUCACAUGAGGAUCACCCAUGUUUAAGCGCUAUUCCUACUUCCUCAGCGCC [Ininceisa] (puzzle: Sensor for hsa-mir-208a) | – | – | – | 104 | – | 97.7 |
| AUGCCAAAAUGAGGAUAUGGAGCCUUAUUGGCUCCAGAAGGCGUGACAUGAGGAUCACCCAUGUGGCAGUGGUCUAAUGACCAC [Eli NG1ss - 44] (Eterna round: R96, puzzle: Same State NG 1) | 21.9 | 53.3 | 77 | – | – | – |
| GCGACGGCGAAAGGAUAUCAAAAUCAACAGUGUUGAGAAGGUUCUCCGAGGGUCGCACAUGAGGAUCACCCAUGUCGCGAAUCU [Eternabot solution 35] (Eterna round: R96, puzzle: Same State NG 1) | – | 9.02 | – | – | – | – |
| AGCUUACAUGAGGAUCACCCAUGUAGGAAGUACAUAGGAUAUCACCAAAUGGUCGACAUGUGAGAAGGGUGGAAGU [Usarle] (puzzle: Same State 1) | – | – | – | 16.2 | 19.4 | 13.5 |
| GGAGCCGGCACCGAGGAUAUUCAUAUUAAAACAUGAGGAUCACCCAUGUGGGCCAGAAGGCCUUGGGAGAAGGCGGAUCGGCUCG [Xeonanis - 1] (Eterna round: R96, puzzle: Same State 2) | 18.6 | 141 | 314 | – | – | – |
| UUAAUUAGUUGAGGAUAUUAUGUCGACUGAGACGACAUGAGGAUCACCCAUGUGAGAAGUGGUUUUAAGAAGGCAACAUUCAUA [JR_SSNG2_Sub088] (Eterna round: R96, puzzle: Same State NG 2) | 55.9 | 83 | 141 | – | – | – |
| UCUUGGUUUUUGCUCGUUUUUUGUGUUGAACAUGAGGAUCACCCAUGUAUUGUACAGUCCGGUUUGAUGAUGGUCCG [JMF 59] (puzzle: Sensor for hsa-mir-208a) | – | – | – | 32.1 | 25.6 | 33.4 |
| GCACAUGAGGAUCACCCAUGUGCGCUUGGUUGUCCAAGCGCACAGGAUAUACCUCCAAAUGGGAGGUAGAAGGGUGAAAAGAAG [Leones] (Eterna round: R96, puzzle: Same State NG 3) | 15.1 | 11.1 | 11 | – | – | – |
| CUAAAACAUGAGGAUCACCCAUGUCAACAAAGUCGAGGAUAUGGGCAAAUAAAAUAAGAACCAGAAGGCGAAUAAG [salish99_SS1_r3_013] (puzzle: Same State 1) | – | – | – | 81.9 | 274 | 543 |
| UAUCCAUAGAUAGGAUAUUAGUGAACAUGAGGAUCACCCAUGUUUGGCUUGGUUUUAAGCUAAUCUGAGAAGGAUCUUGAUGAA [SameState NG2 #7] (Eterna round: R96, puzzle: Same State NG 2) | 150 | 98.5 | 164 | – | – | – |
| GCCGCAGGCUAAGGAUAUUGCGUGAUCACAUGAGGAUCACCCAUGUCAAUAUCGCUACGGAAGAGCAAGAAGGUAGCGCCGCAG [Eternabot solution 10] (Eterna round: R96, puzzle: Same State NG 2) | 188 | 182 | 127 | – | – | – |
| AAAAGACAGGCAGGAUAUGGGCCUGGCUCUGAUAUCAGAGCCUACACAUGAGGAUCACCCAUGUCCCAGAAGGGCCUGUAGAAG [Cetiriqu] (Eterna round: R96, puzzle: Same State NG 2) | 19.4 | 65.3 | 79.1 | – | – | – |
